Ends that are not written are not given here.
Experiments:
Assay in all cases: peptide microarray
ApoC3 peptide … F64E = target: T1, ApoC3 peptide … F64E (human, not fully specified (bridges); also: cyclic constrained)
T1 peptide: DKFSEEWDLDPEV
Procedure: (§1) F64 was completely variable.
(§2) Pre: staining of one of the ApoC3 peptide microarrays was done with the secondary antibody goat anti-human IgG (Fe) DyLight680 (1:5000) and control antibody mouse monoclonal anti-HA (12CA5) DyLight800 (1:2000) to investigate background interactions of the secondary antibody with the antigen-derived peptides that could interfere with the main assays. Subsequent incubation of other ApoC3 peptide microarrays with antibody samples was followed by staining with secondary and control antibodies as well as read-out at scanning intensities of 7/7 (red/green). The additional HA peptides framing the peptide arrays were stained as internal quality control to confirm the assay quality and the peptide microarray integrity.

ApoC3 peptide … P69Q = ApoC3 peptide … P69Q (human, cyclic constrained)
Procedure: as §1, §2

ApoC3 peptide … D59M = target: T2, ApoC3 peptide … D59M (human, cyclic constrained)
T2 peptide: MKFSEFWDLDPEV
Procedure: as §1, §2

ApoC3 peptide … E70R = target: T3, ApoC3 peptide … E70R (human, not fully specified (bridges); also: cyclic constrained)
T3 peptide: DKFSEFWDLDPRV
Procedure: as §1, §2

ApoC3 peptide … D68V = ApoC3 peptide … D68V (human, cyclic constrained)
Procedure: as §1, §2

ApoC3 peptide … W65H = target: T4, ApoC3 peptide … W65H (human, not fully specified (bridges); also: cyclic constrained, ring type and places not given here)
T4 peptide: DKFSEFHDLDPEV
Procedure: as §1, §2

ApoC3 peptide … F61P = target: T5, ApoC3 peptide … F61P (human, not fully specified (bridges); also: cyclic constrained)
T5 peptide: DKPSEFWDLDPEV
Procedure: as §1, §2

ApoC3 peptide … V71H = ApoC3 peptide … V71H (human, cyclic constrained)
Procedure: as §1, §2

ApoC3 peptide … L67H = target: T6, ApoC3 peptide … L67H (human, not fully specified (bridges); also: cyclic constrained)
T6 peptide: DKFSEFWDHDPEV
Procedure: as §1, §2

ApoC3 peptide … W65Y = target: T7, ApoC3 peptide … W65Y (human, not fully specified (bridges); also: cyclic constrained, ring type and places not given here)
T7 peptide: DKFSEFYDLDPEV
Procedure: as §1, §2

ApoC3 peptide … W65K = target: T8, ApoC3 peptide … W65K (human, not fully specified (bridges); also: cyclic constrained, ring type and places not given here)
T8 peptide: DKFSEFKDLDPEV
Procedure: as §1, §2

ApoC3 peptide … W65N = target: T9, ApoC3 peptide … W65N (human, not fully specified (bridges); also: cyclic constrained, ring type and places not given here)
T9 peptide: DKFSEFNDLDPEV
Procedure: as §1, §2

ApoC3 peptide … L67C = target: T10, ApoC3 peptide … L67C (human, not fully specified (bridges); also: cyclic constrained)
T10 peptide: DKFSEFWDCDPEV
Procedure: as §1, §2

ApoC3 peptide … L67K = target: T11, ApoC3 peptide … L67K (human, not fully specified (bridges); also: cyclic constrained)
T11 peptide: DKFSEFWDKDPEV
Procedure: as §1, §2

ApoC3 peptide … F64T = target: T12, ApoC3 peptide … F64T (human, not fully specified (bridges); also: cyclic constrained)
T12 peptide: DKFSETWDLDPEV
Procedure: as §1, §2

ApoC3 peptide … F64N = target: T13, ApoC3 peptide … F64N (human, not fully specified (bridges); also: cyclic constrained)
T13 peptide: DKFSENWDLDPEV
Procedure: as §1, §2

ApoC3 peptide … P69C = target: T14, ApoC3 peptide … P69C (human, not fully specified (bridges); also: cyclic constrained)
T14 peptide: DKFSEFWDLDCEV
Procedure: as §1, §2

ApoC3 peptide … D66G = target: T15, ApoC3 peptide … D66G (human, not fully specified (bridges); also: cyclic constrained)
T15 peptide: DKFSEFWGLDPEV
Procedure: as §1, §2

ApoC3 peptide … D59N = target: T16, ApoC3 peptide … D59N (human, cyclic constrained)
T16 peptide: NKFSEFWDLDPEV
Procedure: as §1, §2

ApoC3 peptide … W65S = target: T17, ApoC3 peptide … W65S (human, not fully specified (bridges); also: cyclic constrained, ring type and places not given here)
T17 peptide: DKFSEFSDLDPEV
Procedure: as §1, §2

ApoC3 peptide … V71D = ApoC3 peptide … V71D (human, cyclic constrained)
Procedure: as §1, §2

ApoC3 peptide … F64P = target: T18, ApoC3 peptide … F64P (human, not fully specified (bridges); also: cyclic constrained)
T18 peptide: DKFSEPWDLDPEV
Procedure: as §1, §2

ApoC3 peptide … V71A = ApoC3 peptide … V71A (human, cyclic constrained)
Procedure: as §1, §2

ApoC3 peptide … D68I = target: T19, ApoC3 peptide … D68I (human, cyclic constrained)
T19 peptide: DKFSEFWDLIPEV
Procedure: as §1, §2

ApoC3 peptide … D59Q = target: T20, ApoC3 peptide … D59Q (human, cyclic constrained)
T20 peptide: QKFSEFWDLDPEV
Procedure: as §1, §2

ApoC3 peptide … P69V = ApoC3 peptide … P69V (human, cyclic constrained)
Procedure: as §1, §2

[1] = target: T21, wild-type ApoC3 peptide DKFSEFWDLDPEV (SEQ ID NO: 44) (human, not fully specified (bridges); also: cyclic constrained, ring type and positions not given here)
T21 construct: 13 aa cyclic constrained peptide
T21 peptide: DKFSEFWDLDPEV
Procedure: as §1, §2

ApoC3 peptide … W65R = target: T22, ApoC3 peptide … W65R (human, not fully specified (bridges); also: cyclic constrained, ring type and places not given here)
T22 peptide: DKFSEFRDLDPEV
Procedure: as §1, §2

ApoC3 peptide … W65M = target: T23, ApoC3 peptide … W65M (human, not fully specified (bridges); also: cyclic constrained, ring type and places not given here)
T23 peptide: DKFSEFMDLDPEV
Procedure: as §1, §2

ApoC3 peptide … V71Q = ApoC3 peptide … V71Q (human, cyclic constrained)
Procedure: as §1, §2

ApoC3 peptide … D68W = ApoC3 peptide … D68W (human, cyclic constrained)
Procedure: as §1, §2

ApoC3 peptide … E70N = target: T24, ApoC3 peptide … E70N (human, not fully specified (bridges); also: cyclic constrained)
T24 peptide: DKFSEFWDLDPNV
Procedure: as §1, §2

ApoC3 peptide … D59I = target: T25, ApoC3 peptide … D59I (human, cyclic constrained)
T25 peptide: IKFSEFWDLDPEV
Procedure: as §1, §2

ApoC3 peptide … L67T = target: T26, ApoC3 peptide … L67T (human, not fully specified (bridges); also: cyclic constrained)
T26 peptide: DKFSEFWDTDPEV
Procedure: as §1, §2

ApoC3 peptide … V71S = ApoC3 peptide … V71S (human, cyclic constrained)
Procedure: as §1, §2

% of binding to wild-type peptide (ApoC3 peptide … F64E): 236%
% of binding to wild-type peptide (ApoC3 peptide … P69Q): 28.2%
% of binding to wild-type peptide (ApoC3 peptide … D59M): 60.2%
% of binding to wild-type peptide (ApoC3 peptide … E70R): 0%
% of binding to wild-type peptide (ApoC3 peptide … D68V): 0%
% of binding to wild-type peptide (ApoC3 peptide … W65H): 17%
% of binding to wild-type peptide (ApoC3 peptide … F61P): 79%
% of binding to wild-type peptide (ApoC3 peptide … V71H): 75.9%
% of binding to wild-type peptide (ApoC3 peptide … L67H): 7.67%
% of binding to wild-type peptide (ApoC3 peptide … W65Y): 26.7%
% of binding to wild-type peptide (ApoC3 peptide … W65K): 0%
% of binding to wild-type peptide (ApoC3 peptide … W65N): 56.5%
% of binding to wild-type peptide (ApoC3 peptide … L67C): 1.13%
% of binding to wild-type peptide (ApoC3 peptide … L67K): 25.8%
% of binding to wild-type peptide (ApoC3 peptide … F64T): 215%
% of binding to wild-type peptide (ApoC3 peptide … F64N): 153%
% of binding to wild-type peptide (ApoC3 peptide … P69C): 28.9%
% of binding to wild-type peptide (ApoC3 peptide … D66G): 0%
% of binding to wild-type peptide (ApoC3 peptide … D59N): 77.5%
% of binding to wild-type peptide (ApoC3 peptide … W65S): 132%
% of binding to wild-type peptide (ApoC3 peptide … V71D): 223%
% of binding to wild-type peptide (ApoC3 peptide … F64P): 285%
% of binding to wild-type peptide (ApoC3 peptide … V71A): 85.2%
% of binding to wild-type peptide (ApoC3 peptide … D68I): 0%
% of binding to wild-type peptide (ApoC3 peptide … D59Q): 95%
% of binding to wild-type peptide (ApoC3 peptide … P69V): 68.3%
% of binding to wild-type peptide [1]: 100%
% of binding to wild-type peptide (ApoC3 peptide … W65R): 7.71%
% of binding to wild-type peptide (ApoC3 peptide … W65M): 19.1%
% of binding to wild-type peptide (ApoC3 peptide … V71Q): 81.4%
% of binding to wild-type peptide (ApoC3 peptide … D68W): 0%
% of binding to wild-type peptide (ApoC3 peptide … E70N): 0.15%
% of binding to wild-type peptide (ApoC3 peptide … D59I): 103%
% of binding to wild-type peptide (ApoC3 peptide … L67T): 100%
% of binding to wild-type peptide (ApoC3 peptide … V71S): 84.7%
B1: anti-ApoC3 antibody 6A6 (antibody, V domains shown)
VH: EVQLVESGGGLVQPGGSLRLSCAASGFTFSSYAGRWVRQVPGKGLEWVSSINAGGGSTSYADSVKGRFTISRDNAKNTLYLQMNSLKPEDTAKYYCTQNSYRYWGQGTRVAVSS
VL: DVVLTQTPGSLSVVPGESASISCKASQSLIHTDGKTYLYWLLQKPGQRPQLLIYQVSSHESGVPDRFTGSGSGTDFTLKISGVKAEDAGVYYCAQATYNPRTFGQGTKLEIK
notes: it was detected with goat anti-human IgG (Fc); also called mAb 6A6; llama antibody 6A6

Source: patent US20190241648A1 (STATEN BIOTECHNOLOGY B V, published 2019)
